Data on three molecules can be found in publication PMC11839890 (European Journal of Nuclear Medicine and Molecular Imaging, 2024).

One data set concerns A431-CCK2R cells. The conditions noted are these: cited from earlier work.
The test system of the next data set is A431-CCK2R xenografts. Conditions: in vivo; cited from earlier work.
The test system of the next data set is tumour. Conditions: in vivo; cited from earlier work.
The nature of data set [1]: Extended single-dose toxicity study in Wistar rats. The conditions noted are these: male, rat, in vivo, intravenous, for humans. As for the experimental part: The first clinical dose for the therapeutic application was established based on a previous extended singe-dose toxicity study performed on the chemical precursor DOTA-MGS5 in a GLP-compliant laboratory (BSL BIOSERVICE Scientific Laboratories Munich GmbH, Planegg/Munich, Germany). According to applicable guidelines a targeted programme of non-clinical testing was followed. The safety was assessed in a single species and no repeated dose study was performed, as complete clearance between administrations is expected. The study was conducted in male Wister rats and included three dose groups and one control group. The histopathological examination was focused on the main target organs.

Details of data set [2]: method as in PMID 34208516. The conditions noted are these: established for humans from the rat study; cited from earlier work.

Non-standard residues stand in square brackets, D forms with d. *: point of attachment. DOTA = O=C(O)CN1CCN(CC(=O)O)CCN(CC(=O)*)CCN(CC(=O)O)CC1

One may read the Kd as the constant that tells how readily two partners part at equilibrium. Take “[^177Lu]Lu-DOTA-PP-F11N: 177Lu-labelled DOTA-(DGlu)6-Ala-Tyr-Gly-Trp-Nle-Asp-Phe-NH2 (AYGW; 177Lu-DOTA-(DGlu)6, Nle-Asp-Phe-NH2; printed: Ala-Tyr-Gly-Trp-)”: in the data set with A431-CCK2R cells (A431-CCK2R cells, nM printed only with the first value of the sentence), the Bmax is given as 0.54 ± 0.10 nM. For the same molecule, the Kd with A431-CCK2R cells (same cell line (A431-CCK2R), nM printed only with the PP-F11N value) is 50 ± 7.3 nM. Also, the tumour uptake in the data set with A431-CCK2R xenografts was ~ 7 %ID/g.
As to “[^111In]In-DOTA-MG11: 111In-labelled DOTA-MG11 (DOTA-DGlu-Ala-Tyr-Gly-Trp-Met-Asp-Phe-NH2) ({DOTA}-[dE]AYGWMDF-NH2; also: 111In complexed by DOTA)”, the tumour uptake with tumour is reported as 2–3 % ID/g.
For `CCCC[C@@H](C(=O)N[C@@H](CC(=O)O)C(=O)N[C@@H](Cc1cccc2ccccc12)C(N)=O)N(C)C(=O)[C@H](Cc1c[nH]c2ccccc12)NC(=O)CNC(=O)[C@H](Cc1ccc(O)cc1)NC(=O)[C@H](C)NC(=O)[C@@H](CCC(=O)O)NC(=O)CN1CCN(CC(=O)O)CCN(CC(=O)O)CCN(CC(=O)O)CC1` [DOTA-MGS5, DOTA-DGlu-Ala-Tyr-Gly-Trp-(N-Me)Nle-Asp-1-Nal-NH2], the 1/100 of NOAEL in data set [1] was found to be 4 µg/kg. Besides, the “NOAEL (no observed adverse effect level)” value in data set [2] is recorded as 0.4 mg/kg body weight.
